{"source": "paper PMC8835902", "about": "“DNA Polymerase-Parental DNA Interaction Is Essential for Helicase-Polymerase Coupling during Bacteriophage T7 DNA Replication”", "binders": {"B1": {"name": "Linear template-58nt (dsDNA)", "DNA 1": "GGATTATTTACATTGGCAGATTCACC", "DNA 2": "TTATTAGTTATGATATTCATGTATAGTTATATGGTGAATCTGCCAATGTAAATAATCC"}, "B2": {"name": "Fork template 1gap (mixed)", "DNA 1": "GGATTATTTACATTGGCAGATTCACC", "DNA 2": "B1 DNA 2", "DNA 3": "TATTCATGTATAGTTATGTAGAGTCCGAGATCCGCGCTGCCAGTCGGCAGAGCC"}, "B3": {"name": "Fork template 2gap (mixed)", "DNA 1": "GGATTATTTACATTGGCAGATTCACC", "DNA 2": "B1 DNA 2", "DNA 3": "TATTCATGTATAGTTATGTAGAGTTCCGAGATCCGCGCTGCCAGTCGGCAGAGCC"}, "B4": {"name": "Fork template 0gap (mixed)", "DNA 1": "GGATTATTTACATTGGCAGATTCACC", "DNA 2": "B1 DNA 2", "DNA 3": "B2 DNA 3 with T24A"}}, "key": {"[1]": {"molecular_target": "WTgp5 (T7 DNA polymerase, exo-);thioredoxin (trx) (bacteriophage T7;Escherichia coli?, UniProt P00581;P0AA25 1-704;1-109, D5A;E7A|)", "experiment": "EMSA; 20 mM Hepes pH 7.5, 1 mM EDTA, 100 mM KCl, 0.1 mM bME, 5% glycerol, 0.10 mg/mL BSA, 10 nM DNA, 25 C (30 min; 15 min + 15 min for supershift)", "conditions": "protein: recombinant;recombinant, tags: ;, copies: 1;1, label: 5' Cy5 on primer"}, "WAgp5;thioredoxin (trx) [2]": {"molecular_target": "T1, WAgp5;thioredoxin (trx) (bacteriophage T7;Escherichia coli?, UniProt P00581;P0AA25 1-704;1-109, D5A;E7A;W579A|)", "experiment": "EMSA; similar to WTgp5; 20 mM Hepes pH 7.5, 1 mM EDTA, 100 mM KCl, 0.1 mM bME, 5% glycerol, 0.10 mg/mL BSA, 10 nM DNA, 25 C (30 min; 15 min + 15 min for supershift)", "conditions": "protein: recombinant;recombinant; tags: ;; copies: 1;1; label: 5' Cy5 on primer; primer-template, 26 bp duplex, 32 nt 5' template overhang"}, "WAgp5;thioredoxin (trx) [3]": {"molecular_target": "T1, WAgp5;thioredoxin (trx)", "experiment": "EMSA; 1 and 0 gap affinities similar; 20 mM Hepes pH 7.5, 1 mM EDTA, 100 mM KCl, 0.1 mM bME, 5% glycerol, 0.10 mg/mL BSA, 10 nM DNA, 25 C (30 min; 15 min + 15 min for supershift)", "conditions": "protein: recombinant;recombinant, tags: ;, copies: 1;1, label: 5' Cy5 on primer"}, "EQgp4deltaC": {"molecular_target": "EQgp4deltaC (bacteriophage T7, UniProt P03692 1-549, E343Q)", "experiment": "EMSA; 20 mM Hepes pH 7.5, 1 mM EDTA, 100 mM KCl, 0.1 mM bME, 5% glycerol, 0.10 mg/mL BSA, 10 nM DNA, 25 C (30 min; 15 min + 15 min for supershift)", "conditions": "protein: recombinant; tags: His tag removed (PreScission); chain copies: 6; label: 5' Cy5 on primer; fork 1:2 2:3, 2 nt ssDNA gap between primer end and fork"}, "EQgp4 (T7 helicase)": {"molecular_target": "EQgp4 (T7 helicase) (bacteriophage T7, UniProt P03692 1-566, E343Q)", "experiment": "EMSA; dTTP; 20 mM Hepes pH 7.5, 1 mM EDTA, 100 mM KCl, 0.1 mM bME, 5% glycerol, 0.10 mg/mL BSA, 10 nM DNA, 25 C (30 min; 15 min + 15 min for supershift)", "conditions": "protein: recombinant; tags: His tag removed (PreScission); chain copies: 6; label: 5' Cy5 on primer; fork 1:2 2:3, 2 nt ssDNA gap between primer end and fork"}, "[4]": {"molecular_target": "EQgp4 (T7 helicase);K3Dgp5;thioredoxin (trx) (bacteriophage T7;bacteriophage …, UniProt P03692;P00581;P0AA25 1-566;1-704;1-109, E343Q|D5A;E7A;K545D;K549D;K553D|)", "experiment": "EMSA; K3Dgp5-trx stimulates EQgp4 binding; 20 mM Hepes pH 7.5, 1 mM EDTA, 100 mM KCl, 0.1 mM bME, 5% glycerol, 0.10 mg/mL BSA, 10 nM DNA, 25 C (30 min; 15 min + 15 min for supershift)", "conditions": "protein: recombinant;recombinant;recombinant; tags: His tag removed (PreScission);;; chain copies: 6;1;1; label: 5' Cy5 on primer; fork 1:2 2:3, 2 nt ssDNA gap between primer end and fork"}, "[5]": {"molecular_target": "EQgp4 (T7 helicase);WTgp5 (T7 DNA polymerase, exo-);thioredoxin (trx) (bacteriophage T7;bacteriophage …, UniProt P03692;P00581;P0AA25 1-566;1-704;1-109, E343Q|D5A;E7A|)", "experiment": "EMSA; EQgp4 titrated onto DNA pre-bound to WTgp5-trx (60-100 nM); 20 mM Hepes pH 7.5, 1 mM EDTA, 100 mM KCl, 0.1 mM bME, 5% glycerol, 0.10 mg/mL BSA, 10 nM DNA, 25 C (30 min; 15 min + 15 min for supershift)", "conditions": "protein: recombinant;recombinant;recombinant; tags: His tag removed (PreScission);;; chain copies: 6;1;1; label: 5' Cy5 on primer; fork 1:2 2:3, 2 nt ssDNA gap between primer end and fork"}}, "note": "Changes are numbered by the printed parent chain.", "data": [{"binder": "B1", "values": [{"measurement": "Kd", "setting": "[1]; primer-template, 26 bp duplex, 32 nt 5' template overhang", "value": 0.053, "unit": "µM"}, {"measurement": "binding result", "setting": "WAgp5;thioredoxin (trx) [2]", "value": "binds"}]}, {"binder": "B2", "values": [{"measurement": "Kd", "setting": "[1]; fork 1:2 2:3, 1 nt ssDNA gap", "value": 0.063, "unit": "µM"}, {"measurement": "binding result", "setting": "WAgp5;thioredoxin (trx) [3]; fork 1:2 2:3, 1 nt ssDNA gap", "value": "binds"}]}, {"binder": "B3", "values": [{"measurement": "Kd", "setting": "[1]; fork 1:2 2:3, 2 nt ssDNA gap between primer end and fork", "value": 0.036, "unit": "µM"}, {"measurement": "Kd", "setting": "EQgp4deltaC", "value": 0.03, "unit": "µM"}, {"measurement": "Kd", "setting": "EQgp4 (T7 helicase)", "value": 0.024, "unit": "µM"}, {"measurement": "binding result", "setting": "[4]", "value": "binds"}, {"measurement": "Kd", "setting": "[5]", "value": 0.008, "unit": "µM"}]}, {"binder": "B4", "values": [{"measurement": "Kd", "setting": "[1]; fork 1:2 2:3, no gap", "value": 0.11, "unit": "µM"}, {"measurement": "binding result", "setting": "WAgp5;thioredoxin (trx) [3]; fork 1:2 2:3, no gap", "value": "binds"}]}]}
